According to publication PMC7809593 (2021):

Biological target: CXCL12α (Homo sapiens, UniProt P48061, CXCR4 fused to Kate2)
Experiment: receptor internalization sensor

- Kd: ~2 nM
B1: CXCR4 (protein)
chain: MEGISIYTSDNYTEEMGSGDYDSMKEPCFREENANFNKIFLPTIYSIIFLTGIVGNGLVILVMGYQKKLRSMTDKYRLHLSVADLLFVITLPFWAVDAVANWYFGNFLCKAVHVIYTVNLYSSVLILAFISLDRYLAIVHATNSQRPRKLLAEKVVYVGVWIPALLLTIPDFIFANVSEADDRYICDRFYPNDLWVVVFQFQHIMVGLILPGIVILSCYCIIISKLSHSKGHQKRKALKTTVILILAFFACWLPYYIGISIDSFILLEIIKQGCEFENTVHKWISITEALAFFHCCLNPILYAFLGAKFKTSAQHALTSVSRGSSLKILSKGKRGGHSSVSTESESSSFHSS
